From publication PMC6044475 come the findings set out here.

What all share (experiment): SEC
The target of assay [1] is Eca E318Q (Enterococcus casseliflavus).
The target in assay [2] is Eca T320A (Enterococcus casseliflavus).
The target in assay [3] is Eca Y396A (Enterococcus casseliflavus).

As a reminder, the stoichiometry N is a count of units in the complex or per binding partner. With Eca E318Q (natural protein), in assay [1], the stoichiometry N was determined as 2.
In the case of Eca T320A (natural protein), in assay [2], the stoichiometry N was 2.
Regarding Eca Y396A (natural protein), the stoichiometry N in assay [3] was determined as 2.
